Results taken from patent US20220144956A1 (published 2022).

The binders below were run against T1, human TGFßRII (antigen of the Octet experiments) (human, UniProt P37173 23-166) (assay: BLI (Octet)).
T1 sequence (P37173 23-166): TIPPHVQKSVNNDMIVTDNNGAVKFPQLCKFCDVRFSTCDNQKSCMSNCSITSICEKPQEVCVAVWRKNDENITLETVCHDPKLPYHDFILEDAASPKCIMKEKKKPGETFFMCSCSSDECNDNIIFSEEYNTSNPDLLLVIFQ

| Binder | Kd [nM] |
| --- | --- |
| H1.86 L1 XENP34542 (antibody, V domains shown) VH: QLQVQESGPGLVKPSETLSLTCTVSGGSISNSYFSWGWIRQPPGKGLEWIGSFYYGEKTYYNPSLKSRATISIDTSKSQFSLKLSSVTAADTAVYYCPRGPTTIRGVIDSWGQGTLVTVSS VL: EIVLTQSPATLSLSPGERATLSCRASQSVRSYLAWYQQKPGQAPRLLIYDASNRATGIPARFSGSGSGTDFTLTISSLEPEDFAVYYCQQRSNWPPTFGQGTKVEIK | 0.0662 |
| H1.98 L1 XENP34554 (antibody, V domains shown) VH: QLQVQESGPGLVKPSETLSLTCTVSGGSISNSYFSWGWIRQPPGKGLEWIGSFYYGEKTYYNPSLKSRATISIDTSKSQFSLKLSSVTAADTAVYYCPRGPTMIRGAIDSWGQGTLVTVSS VL: EIVLTQSPATLSLSPGERATLSCRASQSVRSYLAWYQQKPGQAPRLLIYDASNRATGIPARFSGSGSGTDFTLTISSLEPEDFAVYYCQQRSNWPPTFGQGTKVEIK | 0.761 |
| H1.81 L1 XENP34537 (antibody, V domains shown) VH: QLQVQESGPGLVKPSETLSLTCTVSGGSISNSYFSWGWIRQPPGKGLEWIGSFYYGEKTYYNPSLKSRATISIDTSKSQFSLKLSSVTAADTAVYYCPRGPNMIRGVIDSWGQGTLVTVSS VL: EIVLTQSPATLSLSPGERATLSCRASQSVRSYLAWYQQKPGQAPRLLIYDASNRATGIPARFSGSGSGTDFTLTISSLEPEDFAVYYCQQRSNWPPTFGQGTKVEIK | 300 |
| H1.104 L1 XENP34560 (antibody, V domains shown) VH: QLQVQESGPGLVKPSETLSLTCTVSGGSISNSYFSWGWIRQPPGKGLEWIGSFYYGEKTYYNPSLKSRATISIDTSKSQFSLKLSSVTAADTAVYYCPRGPTMIRGVIDVWGQGTLVTVSS VL: EIVLTQSPATLSLSPGERATLSCRASQSVRSYLAWYQQKPGQAPRLLIYDASNRATGIPARFSGSGSGTDFTLTISSLEPEDFAVYYCQQRSNWPPTFGQGTKVEIK | 0.601 |
| H1.84 L1 XENP34540 (antibody, V domains shown) VH: QLQVQESGPGLVKPSETLSLTCTVSGGSISNSYFSWGWIRQPPGKGLEWIGSFYYGEKTYYNPSLKSRATISIDTSKSQFSLKLSSVTAADTAVYYCPRGPTEIRGVIDSWGQGTLVTVSS VL: EIVLTQSPATLSLSPGERATLSCRASQSVRSYLAWYQQKPGQAPRLLIYDASNRATGIPARFSGSGSGTDFTLTISSLEPEDFAVYYCQQRSNWPPTFGQGTKVEIK | 4.16 |
| H1.88 L1 XENP34544 (antibody, V domains shown) VH: QLQVQESGPGLVKPSETLSLTCTVSGGSISNSYFSWGWIRQPPGKGLEWIGSFYYGEKTYYNPSLKSRATISIDTSKSQFSLKLSSVTAADTAVYYCPRGPTMARGVIDSWGQGTLVTVSS VL: EIVLTQSPATLSLSPGERATLSCRASQSVRSYLAWYQQKPGQAPRLLIYDASNRATGIPARFSGSGSGTDFTLTISSLEPEDFAVYYCQQRSNWPPTFGQGTKVEIK | 0.402 |
| H1.90 L1 XENP34546 (antibody, V domains shown) VH: QLQVQESGPGLVKPSETLSLTCTVSGGSISNSYFSWGWIRQPPGKGLEWIGSFYYGEKTYYNPSLKSRATISIDTSKSQFSLKLSSVTAADTAVYYCPRGPTMNRGVIDSWGQGTLVTVSS VL: EIVLTQSPATLSLSPGERATLSCRASQSVRSYLAWYQQKPGQAPRLLIYDASNRATGIPARFSGSGSGTDFTLTISSLEPEDFAVYYCQQRSNWPPTFGQGTKVEIK | 0.0747 |
| H1.105 L1 XENP34561 (antibody, V domains shown) VH: QLQVQESGPGLVKPSETLSLTCTVSGGSISNSYFSWGWIRQPPGKGLEWIGSFYYGEKTYYNPSLKSRATISIDTSKSQFSLKLSSVTAADTAVYYCPRGPTMIRGVIDYWGQGTLVTVSS VL: EIVLTQSPATLSLSPGERATLSCRASQSVRSYLAWYQQKPGQAPRLLIYDASNRATGIPARFSGSGSGTDFTLTISSLEPEDFAVYYCQQRSNWPPTFGQGTKVEIK | 0.455 |
| H1 L1.5 XENP34568 (antibody, V domains shown) VH: QLQVQESGPGLVKPSETLSLTCTVSGGSISNSYFSWGWIRQPPGKGLEWIGSFYYGEKTYYNPSLKSRATISIDTSKSQFSLKLSSVTAADTAVYYCPRGPTMIRGVIDSWGQGTLVTVSS VL: EIVLTQSPATLSLSPGERVTLSCRASQSVRSYLAWYQQKPGQAPRLLIYDASNRATGIPARFSGSGSGTDFTLTISSLEPEDFAVYYCQQRSNWPPTFGQGTKVEIK | 1.3 |
| H1.77 L1 XENP34533 (antibody, V domains shown) VH: QLQVQESGPGLVKPSETLSLTCTVSGGSISNSYFSWGWIRQPPGKGLEWIGSFYYGEKTYYNPSLKSRATISIDTSKSQFSLKLSSVTAVDTAVYYCPRGPTMIRGVIDSWGQGTLVTVSS VL: EIVLTQSPATLSLSPGERATLSCRASQSVRSYLAWYQQKPGQAPRLLIYDASNRATGIPARFSGSGSGTDFTLTISSLEPEDFAVYYCQQRSNWPPTFGQGTKVEIK | 0.749 |
| H1 L1.3 XENP34566 (antibody, V domains shown) VH: QLQVQESGPGLVKPSETLSLTCTVSGGSISNSYFSWGWIRQPPGKGLEWIGSFYYGEKTYYNPSLKSRATISIDTSKSQFSLKLSSVTAADTAVYYCPRGPTMIRGVIDSWGQGTLVTVSS VL: EIVLTQSPPTLSLSPGERATLSCRASQSVRSYLAWYQQKPGQAPRLLIYDASNRATGIPARFSGSGSGTDFTLTISSLEPEDFAVYYCQQRSNWPPTFGQGTKVEIK | 0.547 |
| H1.83 L1 XENP34539 (antibody, V domains shown) VH: QLQVQESGPGLVKPSETLSLTCTVSGGSISNSYFSWGWIRQPPGKGLEWIGSFYYGEKTYYNPSLKSRATISIDTSKSQFSLKLSSVTAADTAVYYCPRGPTAIRGVIDSWGQGTLVTVSS VL: EIVLTQSPATLSLSPGERATLSCRASQSVRSYLAWYQQKPGQAPRLLIYDASNRATGIPARFSGSGSGTDFTLTISSLEPEDFAVYYCQQRSNWPPTFGQGTKVEIK | 3.47 |
| H1 L1.7 XENP34570 (antibody, V domains shown) VH: QLQVQESGPGLVKPSETLSLTCTVSGGSISNSYFSWGWIRQPPGKGLEWIGSFYYGEKTYYNPSLKSRATISIDTSKSQFSLKLSSVTAADTAVYYCPRGPTMIRGVIDSWGQGTLVTVSS VL: EIVLTQSPATLSLSPGERATLSCRASQGVRSYLAWYQQKPGQAPRLLIYDASNRATGIPARFSGSGSGTDFTLTISSLEPEDFAVYYCQQRSNWPPTFGQGTKVEIK | 0.315 |
| H1.99 L1 XENP34555 (antibody, V domains shown) VH: QLQVQESGPGLVKPSETLSLTCTVSGGSISNSYFSWGWIRQPPGKGLEWIGSFYYGEKTYYNPSLKSRATISIDTSKSQFSLKLSSVTAADTAVYYCPRGPTMIRGSIDSWGQGTLVTVSS VL: EIVLTQSPATLSLSPGERATLSCRASQSVRSYLAWYQQKPGQAPRLLIYDASNRATGIPARFSGSGSGTDFTLTISSLEPEDFAVYYCQQRSNWPPTFGQGTKVEIK | 0.431 |
| H1.85 L1 XENP34541 (antibody, V domains shown) VH: QLQVQESGPGLVKPSETLSLTCTVSGGSISNSYFSWGWIRQPPGKGLEWIGSFYYGEKTYYNPSLKSRATISIDTSKSQFSLKLSSVTAADTAVYYCPRGPTSIRGVIDSWGQGTLVTVSS VL: EIVLTQSPATLSLSPGERATLSCRASQSVRSYLAWYQQKPGQAPRLLIYDASNRATGIPARFSGSGSGTDFTLTISSLEPEDFAVYYCQQRSNWPPTFGQGTKVEIK | 4 |
| H1.89 L1 XENP34545 (antibody, V domains shown) VH: QLQVQESGPGLVKPSETLSLTCTVSGGSISNSYFSWGWIRQPPGKGLEWIGSFYYGEKTYYNPSLKSRATISIDTSKSQFSLKLSSVTAADTAVYYCPRGPTMDRGVIDSWGQGTLVTVSS VL: EIVLTQSPATLSLSPGERATLSCRASQSVRSYLAWYQQKPGQAPRLLIYDASNRATGIPARFSGSGSGTDFTLTISSLEPEDFAVYYCQQRSNWPPTFGQGTKVEIK | 0.141 |
| H1.82 L1 XENP34538 (antibody, V domains shown) VH: QLQVQESGPGLVKPSETLSLTCTVSGGSISNSYFSWGWIRQPPGKGLEWIGSFYYGEKTYYNPSLKSRATISIDTSKSQFSLKLSSVTAADTAVYYCPRGPSMIRGVIDSWGQGTLVTVSS VL: EIVLTQSPATLSLSPGERATLSCRASQSVRSYLAWYQQKPGQAPRLLIYDASNRATGIPARFSGSGSGTDFTLTISSLEPEDFAVYYCQQRSNWPPTFGQGTKVEIK | 2.41 |
| H1.95 L1 XENP34551 (antibody, V domains shown) VH: QLQVQESGPGLVKPSETLSLTCTVSGGSISNSYFSWGWIRQPPGKGLEWIGSFYYGEKTYYNPSLKSRATISIDTSKSQFSLKLSSVTAADTAVYYCPRGPTMIKGVIDSWGQGTLVTVSS VL: EIVLTQSPATLSLSPGERATLSCRASQSVRSYLAWYQQKPGQAPRLLIYDASNRATGIPARFSGSGSGTDFTLTISSLEPEDFAVYYCQQRSNWPPTFGQGTKVEIK | 2.34 |
| H1.78 L1 XENP34534 (antibody, V domains shown) VH: QLQVQESGPGLVKPSETLSLTCTVSGGSISNSYFSWGWIRQPPGKGLEWIGSFYYGEKTYYNPSLKSRATISIDTSKSQFSLKLSSVTAADTAVYYCARGPTMIRGVIDSWGQGTLVTVSS VL: EIVLTQSPATLSLSPGERATLSCRASQSVRSYLAWYQQKPGQAPRLLIYDASNRATGIPARFSGSGSGTDFTLTISSLEPEDFAVYYCQQRSNWPPTFGQGTKVEIK | 0.699 |

Target: T1, human TGFßRII (antigen of the Octet …)
Assay: BLI (Octet)
Remark: another data set of the same source

| Binder | Kd [nM] |
| --- | --- |
| H1.54 L1 XENP34510 (antibody, V domains shown) VH: QLQVQESGPGLVKPSETLSLTCTVSGGSISNSYFSWGWIRQPPGKGLEWIGSFYSGEKTYYNPSLKSRATISIDTSKSQFSLKLSSVTAADTAVYYCPRGPTMIRGVIDSWGQGTLVTVSS VL: EIVLTQSPATLSLSPGERATLSCRASQSVRSYLAWYQQKPGQAPRLLIYDASNRATGIPARFSGSGSGTDFTLTISSLEPEDFAVYYCQQRSNWPPTFGQGTKVEIK | 0.666 |
| H1.42 L1 XENP34498 (antibody, V domains shown) VH: QLQVQESGPGLVKPSETLSLTCTVSGGSISNSYFSWGWIRQPPGKGLEWIGNFYYGEKTYYNPSLKSRATISIDTSKSQFSLKLSSVTAADTAVYYCPRGPTMIRGVIDSWGQGTLVTVSS VL: EIVLTQSPATLSLSPGERATLSCRASQSVRSYLAWYQQKPGQAPRLLIYDASNRATGIPARFSGSGSGTDFTLTISSLEPEDFAVYYCQQRSNWPPTFGQGTKVEIK | 2.59 |
| H1.61 L1 XENP34517 (antibody, V domains shown) VH: QLQVQESGPGLVKPSETLSLTCTVSGGSISNSYFSWGWIRQPPGKGLEWIGSFYYGEKIYYNPSLKSRATISIDTSKSQFSLKLSSVTAADTAVYYCPRGPTMIRGVIDSWGQGTLVTVSS VL: EIVLTQSPATLSLSPGERATLSCRASQSVRSYLAWYQQKPGQAPRLLIYDASNRATGIPARFSGSGSGTDFTLTISSLEPEDFAVYYCQQRSNWPPTFGQGTKVEIK | 0.791 |
